± gives the uncertainty stated by the source.
assay: amyloid nucleation score (Sup35N fusion, yeast selection) (log enrichment); library NNK3; higher = more nucleation; inactive = no reads after selection
Outline: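 Plasmid inserts were Illumina-sequenced at input and output from psi-negative yeast expressing Sup35N fused to peptides of 20 random codons. The yeast were induced with 100 μM copper sulfate for 24 hours and grown 7 days at 30°C on medium lacking adenine and uracil, and sequences with under 100 input reads were excluded. Nucleation score is the DiMSum log enrichment of output over input reads, centred on the mode score of non-aggregating sequences.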

Substance | amyloid nucleation score
YSGGCGWIMSRNSVRYSCIC | inactive
FGQCNQVCCSEWDKD | inactive
HLVKEGDNTMVGGYPFQWMT | inactive
LRLTIMSGIRVPVFYEHSFM | -0.443 ± 0.96
CEVGQCQGYVELLSYIHYNS | inactive
CEEPFLNCHFLDY | inactive
VNLEDGSGDSCKDNCNGERF | -0.821 ± 0.84
KMDQYCWGFFVSWYMRKKVF | inactive
SVFCMLYLFWLSFLIVLLLM | 1.59 ± 0.13
NGSVSVKSLIFLDDCCSSWA | inactive
LKTTDLLPQVTCPHLCILFL | 0.808 ± 0.23
LLNRDI | inactive
NGTALLKVTLAQYVGIVTLF | inactive
TLTRVRTRCTKWRFICNCPM | 0.254 ± 0.34
PDKVWMYCQHICAVKMSLIC | inactive
AALHKRTAAQNVPKELGLTM | 0.227 ± 0.63
LSCPLVYSTSSFIK | inactive
RDSRRETKTNIWIVRYTLW | inactive
PGKGKELSRASGSRATV | inactive
CMKLYRHFLNKASVHSDKGV | inactive
KIILEIAMRTSLCRPTSSYL | 1.03 ± 0.099
VGQYDTFGLRHHGGYRMRRG | inactive
LSLWRWSVHS | inactive

Substance | amyloid nucleation score
ANYVYNQTVMCS | inactive
YLYCRAWIWLDNSMLSWS | inactive
GGDTPDDRVSNHCLYRHHHV | inactive
LQSSMSIYSQFWSVDSLFYE | 0.04 ± 0.66
TGDGTWS | inactive
EVMLYRQHHDVRHEHSGYLT | inactive
VKVFFPIVRCDTYHIYKQWG | 2.51 ± 0.053
LSRFD | inactive
CCGEHRVGQWV | 0.157 ± 0.27
ECTSF | inactive
RGAFSPVVWSDRMELLGRWL | inactive
YQRVHTSCHHELSIHGSSCT | inactive
FHGFLYSAFSSDG | inactive
SRVGGISC | inactive
SKSKYHFYHHGEAWSTLVVV | inactive
KLYWNHAQYPNTTVSTVKFS | -0.706 ± 1.4
NDGPKVARMGSVR | inactive
MRRTSCTVYTGKIRRIMYVV | inactive
FLIDDMYWSVMDTWI | inactive
NIMYLIWWILGKRHVCNPWE | -0.805 ± 1.1
LKQDVKTAVFFFGVD | 1.1 ± 0.15
HQSISGWLVRGLTAGSGAVC | -0.496 ± 0.96
FGYSLMLVTACVLRCQSLWS | inactive

Substance | amyloid nucleation score
LVLPVSFRVCFREVIIHMKY | inactive
ILGRSSISFDLM | inactive
YRILRRYSDPAHEDIKRCTL | inactive
YNHSMGWVCSAFDAKVRILR | inactive
SVNKAWHSRLIVVLYNRLTG | 0.082 ± 0.18
VLSVWDHLYLRNSSCAPTYR | -0.641 ± 1.4
IGFFEFIKELITWKILS | inactive
DGACVSSRLSWGLVYMKKCS | inactive
LLNSM | inactive
DGHWVALREKSFSNQYRSET | inactive
IIMLTFQVNVTFASVWRTRS | inactive
AGKYIQNYEVKGCLSAYRAG | inactive
ILRHKCDEQPVRVSGHCFA | inactive
HKCGQDFYR | inactive
IIIFWLFLSGEIDECNNCAV | inactive
FANYGEKIWCFGAMLGKRLS | inactive
TQESRDIGFTAPRGRICTQG | inactive
VNNNYEVCNDRDSCPLINFC | inactive
VLVVLDVRRGTDLCTF | inactive
CSNWLWWYYYVRMYRSVRFS | -0.368 ± 0.64
PRSVLINLLHRTHVCCRLFS | inactive
MFRVSWFLISGLLRSVAWNG | inactive
HLFINL | inactive

Substance | amyloid nucleation score
MMHILNGRSEVAPFYSTPIS | inactive
GLTFCATRCRDWLEGWQY | inactive
SYRGSRRRSFTSYLCEFEGM | inactive
TLYCRYFG | 1.01 ± 0.23
QTRVHLFAREPPCFTEFNER | inactive
LTSLSKSFCNNVHAYSDFLH | inactive
TNGKEWWNCVYGERTVNAFA | inactive
RATKEGKRLDML | -0.725 ± 1.9
RLLLMSRSLMIRFVLSLVLE | inactive
IADFNSL | inactive
DKTCMVKPT | inactive
RAVHR | inactive
NMGWSSSYH | inactive
ISVVMDNSACG | inactive
SSYLNYIFSMTLECIYGC | -0.272 ± 0.47
VTSNSDRT | inactive
GAQSSTEIAQFYKNGMTSNQ | inactive
VDRVYTLREFEVHGGTWFGV | inactive
LIGLMWFVMWFFMARMREIN | inactive
SRVRNDWYRVKVMGANVVGY | inactive
FFEFRSASYWGPSQYRNMCT | inactive
WPYGIVTLRTWANYLGLFTL | -0.796 ± 1.1
TVMLRRTRYVVYTVYRVVDV | inactive

Substance | amyloid nucleation score
FSPVSQYWMKGFTYTGNRAR | inactive
AYMKGVWFRDEKDISFLIWI | inactive
SWRAVRRALLGRCNGSRVLV | inactive
EVDLLSVNPGVYWDLDWIWF | -0.292 ± 0.88
DTITRSTWIVCWRTE | inactive
NFVQFSTTISFDHNCHMVGC | inactive
DLGRNYIVNGIL | inactive
YWQPWVNLDSYRCGHNSQFP | inactive
SLEVLIYDGKCMSCDDVVNG | inactive
RILFDAARRIRWTVMCTKSC | inactive
RPMDDKWLIGLFARNERDVP | inactive
VRNLLKMTFR | inactive
SWGAWIGLWFRTGVLLDESA | inactive
NKVTLGYMFITSLVRTSS | 0.491 ± 0.15
LGVHWNPFIWVSSDARQNSR | -0.089 ± 0.96
PLGSLHSATQRYVSRLGILS | inactive
ANKYASRFVYSISDLSWTIW | inactive
LGSCCLLYYYAKTVMNMFSK | inactive
DRCCLLHYT | inactive
HVNLIDTKNSLMQMLN | inactive
ILYICHINKGVGGQIGVMAV | inactive
EHNAKEHITLGLTSWPNRLG | inactive
LSYCKRHIRRRLFVG | -0.208 ± 0.6

Substance | amyloid nucleation score
MDMLMLMGMALLIDSNVQAK | inactive
RLRQTATCIRFVFAGNVLAN | 0.018 ± 1.2
SVLWLN | inactive
MCVYITYLNLWSDNSLRDRT | 2.23 ± 0.061
SYVVSQPFSHRYWESLTMAL | inactive
PGSHNS | inactive
YVVRN | inactive
LINKFRWPTPNECLVPVFQD | inactive
FGCQTGWRFRFINSNNR | 1.25 ± 0.14
QTEFSIGPYIPTEATSRTCS | -0.451 ± 1
NTMLKSVMVFWRMLDFRFRL | inactive
MRMTTYSGIRVGIIERIMIN | inactive
YLVSYFNRGQSAFRFWDKFA | inactive
SRFGMHKDTKMWSSRCRCVR | inactive
TIIRLIFIWAFFGSGICGRV | inactive
WKYDKGNFRALVW | inactive
SLSFIECLMELNNLVYYLGS | inactive
THMATNLAGMYREAHGSGGI | inactive
CRSGCQ | inactive
FFFVMSRRANVIGSLEDRSD | 0.936 ± 0.11
HLRLRRTFGINLH | inactive
ASDSCGG | inactive
FSYAFWVKIIIVFRRFITRK | inactive

Substance | amyloid nucleation score
EVFLIIIVKMVNGLSRESRC | inactive
KNKPEKRR | inactive
FWLSHQNDDVYTFMPLSCSS | inactive
VREFTFYDV | inactive
LLEIPNSRDGFHRGSTVGDL | inactive
DVCEGEIYDPDSLKWFYQFL | inactive
GCKWWYSVFREWKSPLSGGV | inactive
KYCGVTNLA | inactive
LLLPIS | inactive
WGFRRT | inactive
APKVQGDCRNTGCAPMVHKK | inactive
CNLGWRNLDMVKG | inactive
SRNPYLYQIHVYKVTGFLCC | 2.51 ± 0.062
NCSGQTGFGPVMSYWTIDVR | -0.022 ± 0.59
RMGHVFMYDYHIV | inactive
RRSRFTFSYIIRSLCASRTF | inactive
KSFSR | inactive
GFMGFVTSHVKMTGNMCNEI | inactive
CLCSDTNVK | inactive
KLNLG | inactive

From the supplement of paper PMC12042874
